A value given as a limit tells only on which side of the number the result lay.

The values below come from patent US20240132578A1.

The target in assay [1] is HIV-1 Env of isolate MGRM-AE-006 (subtype AE) (HIV-1). The experiment in a line: cell-based or functional assay.
Assay [2] deals with HIV-1 Env of isolate 92UG046 (pseudovirus) (HIV-1). The experiment in a line: cell-based or functional assay.
Assay [3] addresses HIV-1 Env of isolate 92UG114 (pseudovirus) (HIV-1). The experiment in a line: cell-based or functional assay.
The target of assay [4] is HIV-1 Env of isolate MGRM-AE-007 (subtype AE) (HIV-1). The experiment in a line: cell-based or functional assay.
For assay [5], the target named is HIV-1 Env of pseudovirus isolate MGRM-C-015 (clade C) (HIV-1). The experiment in a line: cell-based or functional assay.
For assay [6], the target named is HIV-1 JR-CSF Env I424A (HIV-1 (isolate JR-CSF)) (UniProt P20871). The experiment in a line: cell-based or functional assay.
For assay [7], the target named is HIV-1 JR-CSF Env I423A (I4234 in the source) (HIV-1 (isolate JR-CSF)) (UniProt P20871). Description: cell-based or functional assay.
In assay [8] the target is HIV-1 Env of isolate MGRM-A-011 (subtype A) (HIV-1). Description: cell-based or functional assay.
In assay [9] the target is HIV-1 Env of pseudovirus isolate MGRM-C-012 (clade C) (HIV-1). Description: cell-based or functional assay.
The target in assay [10] is HIV-1 Env of isolate MGRM-Chronic-B-002 (HIV-1). The experiment in a line: cell-based or functional assay.
Assay [11] concerns the target HIV-1 Env of isolate CAAN.A2 (HIV-1). The experiment in a line: cell-based or functional assay.
The target in assay [12] is JR-FL gp120 ΔV1/ΔV2 (HIV-1 JR-FL). Description: ELISA, antigen-coated wells, mAb titrated; EC50 by nonlinear regression. On the technique in general: In an ELISA, binding on a coated surface is turned into a signal by an enzyme label.
For assay [13], the target named is HIV-1 Env of isolate MGRM-D-004 (HIV-1). Description: cell-based or functional assay.
Assay [14] addresses HIV-1 Env of isolate VLGCA1 (pseudovirus) (HIV-1). Description: cell-based or functional assay.
The target in assay [15] is HIV-1 Env of pseudovirus isolate 92BR020 (clade B) (HIV-1). Description: cell-based or functional assay.
For assay [16], the target named is HIV-1 Env of isolate 92TH021 (pseudovirus) (HIV-1). The experiment in a line: cell-based or functional assay.
The target in assay [17] is HIV-1 Env of isolate MG RM-A-013 (pseudovirus) (HIV-1). The experiment in a line: cell-based or functional assay.
Assay [18] addresses HIV-1 Env of isolate MGRM-D-003 (HIV-1). Description: cell-based or functional assay.
Assay [19] has as its target HIV-1 Env of isolate MGRM-D-002 (HIV-1). The experiment in a line: cell-based or functional assay.
In assay [20] the target is HIV-1 Env of isolate 92UG024 (HIV-1). Description: cell-based or functional assay.
Assay [21] deals with HIV-1 Env of pseudovirus isolate MGRM-Chronic-B-004 (clade B) (HIV-1). The experiment in a line: cell-based or functional assay.
The target of assay [22] is HIV-1 envelope glycoprotein (Env) of isolate MGRM-C-023 (HIV-1). Description: cell-based or functional assay.
For assay [23], the target named is HIV-1 Env of isolate 92UG001 (clade D pseudovirus) (HIV-1). Description: cell-based or functional assay.
The target of assay [24] is envelope of aMLV pseudovirus (negative control). Description: cell-based or functional assay.
Assay [25] concerns the target HIV-1 MGRM-AE-002 Env (pseudovirus) (HIV-1). The experiment in a line: cell-based or functional assay.
In assay [26] the target is HIV-1 Env of pseudovirus MGRM-G-013 (HIV-1). The experiment in a line: cell-based or functional assay.
Assay [27] has as its target HIV-1 Env of isolate 93UG077 (clade A pseudovirus) (HIV-1). The experiment in a line: cell-based or functional assay.
The target in assay [28] is HIV-1 envelope glycoprotein (Env) of isolate MGRM-C-024 (HIV-1). The experiment in a line: cell-based or functional assay.
Assay [29] addresses HIV-1 VLGCA1 envelope glycoprotein (Env) on pseudovirus (HIV-1 (clade A)). The experiment in a line: cell-based or functional assay.
The target of assay [30] is HIV-1 Env of pseudovirus MGRM-F1-004 (clade F) (HIV-1). Description: cell-based or functional assay.
Assay [31] addresses HIV-1 envelope glycoprotein (Env) of isolate MGRM-C-025 (HIV-1). The experiment in a line: cell-based or functional assay.
In assay [32] the target is HIV-1 Env of isolate APV_6, clade B (HIV-1). Description: cell-based or functional assay.
Assay [33] has as its target HIV-1 Env of isolate CAAN.A2 (Acute), clade B (HIV-1). The experiment in a line: cell-based or functional assay.
In assay [34] the target is HIV-1 Env of pseudovirus MGRM-F1-010 (clade F) (HIV-1). Description: cell-based or functional assay.
The target of assay [35] is HIV-1 Env of isolate MGRM-D-011 (clade D pseudovirus) (HIV-1). The experiment in a line: cell-based or functional assay.
The target in assay [36] is HIV-1 CMU02 envelope (Env) on pseudovirus (HIV-1). Description: cell-based or functional assay.
Assay [37] addresses HIV-1 MGRM-G-001 Env (pseudovirus) (HIV-1). Description: cell-based or functional assay.
In assay [38] the target is HIV-1 Env of isolate MGRM-Chronic-B-002, clade B (HIV-1). The experiment in a line: cell-based or functional assay.
Assay [39] has as its target HIV-1 JRFL envelope glycoprotein (Env) on pseudovirus (HIV-1). Description: cell-based or functional assay.
Assay [40] addresses HIV-1 92TH021 Env (HIV-1). Description: cell-based or functional assay.
The next assay deals with HIV-1 NL43 Env (HIV-1). Description: cell-based or functional assay.
The next assay addresses HIV-1 JRCSF Env (HIV-1) (UniProt P20871). Description: cell-based or functional assay.

Chain of 5329_C19 (PGT-136) (antibody) (VH): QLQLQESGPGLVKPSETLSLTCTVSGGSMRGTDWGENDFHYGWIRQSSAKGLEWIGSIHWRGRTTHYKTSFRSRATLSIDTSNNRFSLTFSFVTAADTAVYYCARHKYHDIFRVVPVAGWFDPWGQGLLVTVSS
Chain of 5329_C19 (PGT-136) (antibody) (VL): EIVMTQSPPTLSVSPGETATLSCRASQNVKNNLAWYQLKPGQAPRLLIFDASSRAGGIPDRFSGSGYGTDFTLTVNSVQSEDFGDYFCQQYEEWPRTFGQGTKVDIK
Chain of 4993_K13 (PGT-141) (antibody) (VH): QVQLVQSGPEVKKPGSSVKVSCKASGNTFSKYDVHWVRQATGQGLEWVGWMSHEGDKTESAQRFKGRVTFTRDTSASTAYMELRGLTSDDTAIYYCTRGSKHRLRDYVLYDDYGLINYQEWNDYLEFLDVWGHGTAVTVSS
Chain of 4993_K13 (PGT-141) (antibody) (VL): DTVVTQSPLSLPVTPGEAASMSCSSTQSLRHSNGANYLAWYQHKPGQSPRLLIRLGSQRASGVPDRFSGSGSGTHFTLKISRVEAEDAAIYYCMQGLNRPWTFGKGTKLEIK
Chain of 4970_K22 (PGT-144) (antibody) (VH): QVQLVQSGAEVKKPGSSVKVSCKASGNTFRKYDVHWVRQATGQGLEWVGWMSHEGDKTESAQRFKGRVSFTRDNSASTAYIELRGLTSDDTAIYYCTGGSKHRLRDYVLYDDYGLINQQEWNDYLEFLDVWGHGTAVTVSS
Chain of 4970_K22 (PGT-144) (antibody) (VL): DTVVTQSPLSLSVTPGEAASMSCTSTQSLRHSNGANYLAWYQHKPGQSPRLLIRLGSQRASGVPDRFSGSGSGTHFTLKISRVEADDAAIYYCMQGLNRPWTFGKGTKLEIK
Chain of 4995_P16 (PGT-145) (antibody) (VH): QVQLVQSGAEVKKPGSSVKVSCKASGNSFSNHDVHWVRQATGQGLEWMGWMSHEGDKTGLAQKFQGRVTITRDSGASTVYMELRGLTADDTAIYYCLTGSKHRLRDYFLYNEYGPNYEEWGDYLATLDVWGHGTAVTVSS
Chain of 4995_P16 (PGT-145) (antibody) (VL): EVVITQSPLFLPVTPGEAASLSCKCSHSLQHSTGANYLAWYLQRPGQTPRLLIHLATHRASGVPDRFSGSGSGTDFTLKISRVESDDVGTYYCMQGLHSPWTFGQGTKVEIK
Chain of 4995_E20 (PGT-142) (antibody) (VH): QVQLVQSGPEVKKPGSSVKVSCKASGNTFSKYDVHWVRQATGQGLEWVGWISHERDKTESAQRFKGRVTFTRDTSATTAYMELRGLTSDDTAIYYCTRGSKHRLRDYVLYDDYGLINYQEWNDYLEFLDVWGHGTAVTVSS
Chain of 5345_I01 (PGT-137) (antibody) (VH): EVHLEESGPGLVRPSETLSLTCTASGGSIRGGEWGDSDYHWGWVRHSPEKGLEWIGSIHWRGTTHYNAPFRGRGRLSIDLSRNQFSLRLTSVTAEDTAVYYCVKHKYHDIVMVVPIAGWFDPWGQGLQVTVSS
Chain of 5345_I01 (PGT-137) (antibody) (VL): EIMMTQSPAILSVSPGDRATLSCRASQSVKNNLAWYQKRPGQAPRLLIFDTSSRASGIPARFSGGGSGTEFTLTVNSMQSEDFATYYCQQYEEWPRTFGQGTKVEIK

Take 5136_H01 (PGT-131) (antibody): the IC50, pseudovirus neutralization in assay [1] was 0.026 µg/mL; in assay [4], 0.026 µg/mL; in [5], 1.01 µg/mL; in assay [8], more than 50 µg/mL; in assay [9], more than 50 µg/mL. The IC50 (µg/mL), pseudovirus neutralization in [2], in [3], in assay [10] and in assay [11] was more than 50 µg/mL throughout. Moreover, the Fold IC50 increase relative to wild-type (pseudovirus neutralization) is 4.8 fold in assay [6] and more than 80 fold in assay [7].

A word on the EC50: it is the concentration needed to bring the measured effect to its halfway point. Regarding 5114_A19 (PGT-128) (antibody), in assay [12], the EC50 worked out at 0.3 µg/mL. In addition, the IC50, pseudovirus neutralization in assay [1] is 0.044 µg/mL; in assay [4], more than 50 µg/mL; in assay [5], 0.196 µg/mL; in assay [8] it was more than 50 µg/mL; in assay [9], 0.058 µg/mL. For the same substance, the IC50 (µg/mL), pseudovirus neutralization is more than 50 µg/mL in assay [2], 0.083 µg/mL in [3], 0.036 µg/mL in assay [10] and 1.48 µg/mL in [11]. In addition, the Fold IC50 increase relative to wild-type (pseudovirus neutralization) turned out to be 1.3 fold in assay [6] and 2.6 fold in assay [7].

Take 4970_K22 (PGT-144) (antibody): the IC50 (µg/mL), pseudovirus neutralization in assay [13], in assay [18], in assay [19] and in [20] was more than 50 µg/mL throughout. In addition, the values for the IC50 (µg/mL), single-round pseudovirus neutralization in assay [14], in assay [16] and in assay [17] were more than 50 µg/mL, 0.052 µg/mL and more than 50 µg/mL, respectively. Further, the IC50, pseudovirus neutralization in assay [15] was 44 µg/mL; in [21], 9.41 µg/mL.

For the substance 4995_E20 (PGT-142) (antibody), the IC50 (µg/mL), pseudovirus neutralization in assay [13], in [18], in [19] and in assay [20] was more than 50 µg/mL throughout. For the same substance, the values for the IC50 (µg/mL), single-round pseudovirus neutralization in assay [14], in assay [16] and in assay [17] were 2.75 µg/mL, 0.002 µg/mL and 3.77 µg/mL, respectively. For the same substance, the IC50, pseudovirus neutralization in [15] stood at 15.1 µg/mL; in assay [21], 0.172 µg/mL.

As to 5345_I01 (PGT-137) (antibody), the concentration giving a half-maximal response (EC50) in assay [12] came out at 0.2 µg/mL. In addition, the IC50, pseudovirus neutralization in assay [1] was more than 50 µg/mL; in [4], more than 50 µg/mL; in assay [5] it was 1.98 µg/mL; in [8] it was more than 50 µg/mL; in assay [9] it was 0.102 µg/mL. The IC50 (µg/mL), pseudovirus neutralization in assay [2], in [3], in assay [10] and in assay [11] was more than 50 µg/mL throughout.

One may read the IC50 as the concentration at which inhibition is half-maximal. A low value points to greater potency. For the substance 2F5 (antibody), the IC50 (µg/ml), pseudovirus neutralization in [22] is more than 50 µg/mL; in assay [25] it was 0.31 µg/mL; in assay [26], 0.59 µg/mL; in assay [27], 3.3 µg/mL; in assay [28] it was more than 50 µg/mL; in assay [29], 3.9 µg/mL. For the same substance, the IC50 (µg/ml), pseudovirus neutralization in [31] is more than 50 µg/mL; in [32], 0.25 µg/mL; in [33], 23.1 µg/mL; in assay [37], 4.1 µg/mL; in [38], 1.25 µg/mL. For the same substance, the results for the IC50, pseudovirus neutralization in [23] and in [35] were 13 µg/mL and more than 50 µg/mL, respectively. The results for the IC50 in assay [24], in assay [30] and in assay [34] were more than 50 µg/mL, 4.31 µg/mL and 14.6 µg/mL, respectively. In assay [36], this substance returned a neutralization IC50 of 0.38 µg/mL.

In [12], 5343_B08 (PGT-135) (antibody) returned an EC50 of 0.1 µg/mL. Further, the IC50, pseudovirus neutralization in assay [1] is more than 50 µg/mL; in assay [4], more than 50 µg/mL; in assay [5] it was 0.104 µg/mL; in [8] it was more than 50 µg/mL; in assay [9], 0.017 µg/mL. Also, the IC50 (µg/mL), pseudovirus neutralization in assay [2] was more than 50 µg/mL; in [3], 1.29 µg/mL; in assay [10] it was more than 50 µg/mL; in assay [11] it was 5.15 µg/mL. Further, the Fold IC50 increase relative to wild-type (pseudovirus neutralization) in assay [6] and in assay [7] was 0.1 fold throughout. In assay [39], this substance returned a Neutralization IC80 of more than 10 µg/mL. Besides, the Neutralization IC90 in assay [39] is more than 10 µg/mL. This substance also had a Neutralization IC95 in assay [39] of more than 10 µg/mL. In assay [39], this substance registered a neutralization IC50 of more than 10 µg/mL.

As for 5329_C19 (PGT-136) (antibody), in assay [12], the EC50 is 0.3 µg/mL. The IC50, pseudovirus neutralization in assay [1] is more than 50 µg/mL; in assay [4] it was more than 50 µg/mL; in assay [5] it was 11.1 µg/mL; in assay [8] it was more than 50 µg/mL; in assay [9] it was more than 50 µg/mL. The IC50 (µg/mL), pseudovirus neutralization in assay [2], in assay [3], in assay [10] and in assay [11] was more than 50 µg/mL each time.

As for 5147_N06 (PGT-130) (antibody), the IC50, pseudovirus neutralization in [40] was 0.0082 µg/mL; in [1], 0.009 µg/mL; with HIV-1 NL43 Env (HIV-1), more than 10 µg/mL; in assay [4], 0.083 µg/mL; in assay [5], 0.344 µg/mL; in [8] it was more than 50 µg/mL. For the same substance, the IC50, pseudovirus neutralization is more than 50 µg/mL in assay [9] and 0.0089 µg/mL in the assay with HIV-1 JRCSF Env (HIV-1). Moreover, the IC50 (µg/mL), pseudovirus neutralization in assay [2], in assay [3], in assay [10] and in assay [11] was more than 50 µg/mL throughout. Besides, the Fold IC50 increase relative to wild-type (pseudovirus neutralization) is 3.9 fold in [6] and more than 1000 fold in assay [7].

Take 4993_K13 (PGT-141) (antibody): the IC50 (µg/mL), pseudovirus neutralization in [13], in [18], in assay [19] and in assay [20] was more than 50 µg/mL throughout. The figures for the IC50 (µg/mL), single-round pseudovirus neutralization in [14], in [16] and in assay [17] were 2.07 µg/mL, 0.001 µg/mL and 9.86 µg/mL, respectively. Also, the IC50, pseudovirus neutralization amounted to 20.3 µg/mL in assay [15] and 0.586 µg/mL in assay [21].

Take 4995_P16 (PGT-145) (antibody): the IC50 (µg/mL), pseudovirus neutralization in assay [13] was 10.9 µg/mL; in assay [18] it was 0.006 µg/mL; in [19], more than 50 µg/mL; in [20] it was 1.6 µg/mL. For the same substance, the IC50 (µg/mL), single-round pseudovirus neutralization in assay [14] amounted to 8.01 µg/mL; in assay [16] it was 0.013 µg/mL; in [17], 1.76 µg/mL. The results for the IC50, pseudovirus neutralization in assay [15] and in assay [21] were 1.05 µg/mL and 0.023 µg/mL, respectively.
